Sequences and labels used below:
B1: Guanyl-specific ribonuclease T1 wild type, P00651 (protein)
chain: MMYSKLLTLTTLLLPTALALPSLVERACDYTCGSNCYSSSDVSTAQAAGYQLHEDGETVGSNSYPHKYNNYEGFDFSVSSPYYEWPILSSGDVYSGGSPGADRVVFNENNQLAGVITHTGASGNNFVECT
B2: Guanyl-specific ribonuclease Sa wild type, P05798 (protein)
chain: DVSGTVCLSALPPEATDTLNLIASDGPFPYSQDGVVFQNRESVLPTQSYGYYHEYTVITPGARTRGTRRIITGEATQEDYYTGDHYATFSLIDQTC

The conditions of the first series: Aspergillus oryzae (strain ATCC 42149 / RIB 40); pH 2.7; 25 °C; Urea; CD; glycine 30 mM; reversible: yes (>95%); whole UniProt chain shown.
For the protein B1, the denaturant m value is 1.64 kcal/mol/M, the “denaturant midpoint (higher = more stable)” value (“denaturant midpoint” for short) was found to be 3.75 M and the unfolding free energy is 6.13 kcal/mol.

Still in this series, the particulars now being: Aspergillus oryzae (strain ATCC 42149 / RIB 40); pH 2.7; 25 °C; Urea; Fluorescence; glycine 30 mM; transition: 2; reversible: Yes; whole UniProt chain shown.
Turning to B1, the denaturant m value was determined as 1.64 kcal/mol/M, the “denaturant midpoint” value stood at 3.75 M and the unfolding free energy is 6.13 kcal/mol.

The series is the same for the next values; noted with them: Aspergillus oryzae (strain ATCC 42149 / RIB 40); pH 7; 25 °C; Urea; CD; MOPS 30 mM; reversible: yes (>95%); whole UniProt chain shown.
As for B1, the denaturant m value was 1.17 kcal/mol/M, the “denaturant midpoint” value was 5.2 M and the unfolding free energy amounted to 6.09 kcal/mol.

Staying with this series, now noted: Aspergillus oryzae (strain ATCC 42149 / RIB 40); pH 7; 25 °C; Urea; Fluorescence; MOPS 30 mM; transition: 2; reversible: Yes; whole UniProt chain shown.
Regarding B1, the denaturant m value came to 1.17 kcal/mol/M, the “denaturant midpoint” value amounted to 5.2 M and the unfolding free energy stood at 6.09 kcal/mol.

Staying with this series, now noted: Aspergillus oryzae (strain ATCC 42149 / RIB 40); pH 7; Thermal; CD; MOPS 30 mM; reversible: yes (>95%); whole UniProt chain shown.
What is called Tm is the temperature at the midpoint of the melting transition. B1: the melting temperature (Tm) was determined as 50.8 °C and the “unfolding enthalpy (van 't Hoff)” value is 96.6 kcal/mol.

The same series, now with this note: Aspergillus oryzae (strain ATCC 42149 / RIB 40); pH 7; Thermal; CD; MOPS 30 mM; transition: 2; reversible: Yes; whole UniProt chain shown.
As to B1, the Tm was 50.8 °C and the “unfolding enthalpy (van 't Hoff)” value stood at 96.6 kcal/mol.

The series is the same for the next values; noted with them: Kitasatospora aureofaciens; pH 2; Thermal; CD; MOPS 30 mM; transition: 2; reversible: Yes; whole UniProt chain shown.
Turning to B2, the Tm was found to be 28 °C and the “unfolding enthalpy (van 't Hoff)” value was 58.8 kcal/mol.

Still in this series, the particulars now being: Kitasatospora aureofaciens; pH 7; Thermal; CD; MOPS 30 mM; reversible: yes (>95%); whole UniProt chain shown.
On to B2, for which the Tm was 48.4 °C and the “unfolding enthalpy (van 't Hoff)” value is 92.4 kcal/mol.

Still in this series, the particulars now being: Kitasatospora aureofaciens; pH 7; Thermal; CD; MOPS 30 mM; transition: 2; reversible: Yes; whole UniProt chain shown.
For the protein B2, the melting temperature (Tm) worked out at 48.4 °C and the “unfolding enthalpy (van 't Hoff)” value was 92.4 kcal/mol.

Source of the values: FireProtDB (doi:10.1021/bi9815243).
